Experimental data taken from patent US20220105194A1, “CONJUGATE COMPRISING LIGAND, SPACER, PEPTIDE LINKER, AND BIOMOLECULE” (ASTELLAS PHARMA INC., priority 2019, published 2022).
Where two headings read alike, the source gives them in different places.

How the values were obtained:
[1] = design: species or system mice (BALB/c nu/nu); settings: mouse, in vivo
Procedure: (§1) A Gd-labeled conjugate of the conjugate containing a peptide linker produced in one of the above Examples was administered from the tail vein of tumor-bearing mice so that the protein mass was 0.02 mg (100 μL) per animal. As the tumor-bearing mice used in the present Example, mice (BALB/c nu/nu) that were in a tumor-bearing state brought about by transplanting human colorectal cancer cell line LS174T cells (ATCC(registered trademark); CL-188) at 2.0 to 5.0×10^6 cells/mouse subcutaneously on the back before administration of the sample were used. 24 hours after administration of the sample, the mice were sacrificed, the kidneys and the tumor were removed, and the amounts of Gd in the kidneys and in the tumor were measured using ICP-MS. The present test was carried out in 3 cases in each group, and the mean value of the 3 cases was calculated. The amount of Gd contained per kidney after administration was shown as a percentage of the amount of Gd administered (% of dose/tissue), and the amount of Gd contained per g of tumor tissue was shown as a percentage of the total amount of Gd administered (% of dose/g).

[2] = Example 4-1: kidney accumulation evaluation test of Gd-labeled conjugates (normal mice); settings: about 24 hours, relative to control conjugate Ex-No 47
Procedure: (§2) A Gd-labeled conjugate of the conjugate containing a peptide linker produced in one of the above Examples was administered from the tail vein of mice (BALB/c or BALB/c nu/nu) so that the protein mass was 0.02 mg (100 μL) per animal. After about 24 hours, the mice were sacrificed and the kidneys were removed, and the amount of Gd in the kidneys was measured using ICP-MS. The present test was carried out in 3 cases in each group, the mean value of the 3 cases was calculated, and the amount of Gd contained per kidney after administration was shown as a percentage (% of dose/tissue) of the total amount of Gd administered.
(§3) Based on the percentage of the control conjugate (% of dose/tissue), the proportion of decrease in the amount of Gd contained in the kidneys of each of the conjugates having a peptide linker was determined and shown in Table 28.

[3] = system: human colorectal cancer cell line LS174T cells; experiment: Example 4-4: amount of tumor accumulation of Gd-labeled conjugates (tumor-bearing mice); settings: tail vein, 0.02 mg protein per animal, 24 hours, ICP-MS, mean of 3 cases
Procedure: as §1

[4] = design: species or system mice (BALB/c or BALB/c nu/nu); settings: mouse, in vivo
Procedure: as §2

[5] = mouse, in vivo
Procedure: as §2, §3

[6] = mouse, in vivo; remark: listed apart in the source
Procedure: as §2

[7] = target: human cancer-specific MUC1; experiment: Example 6-2: ELISA binding activity of anti-human MUC1 antibody Fab^5 fragment conjugates; settings: immobilized human cancer-specific MUC1 peptide, run in duplicate, read-out: EC50
Procedure: Each anti-human MUC1 antibody Fab^5 fragment conjugate prepared by the method of Example 5 was subjected to ELISA to evaluate the binding activity thereof to human cancer-specific MUC1. In the present test, 20×PBS/Tween 20 Buffer (Thermo Fisher Scientific Inc., 28352) diluted 20-fold with distilled water was used as a wash liquid. In addition, for bovine serum albumin (BSA) used in the present test, 30% Bovine Serum Albumin solution (Sigma-Aldrich, Inc., A9576-50ML) was added in an appropriate proportion for use. A human cancer-specific MUC1 peptide (PTL 1) at 0.5 μmol/L was added to a Nunc MaxiSorp White 384 plate (Nunc, 460372) at 30 μL per well, and the plate was incubated overnight at 4° C. for immobilization. The MUC1 peptide was removed by reverse centrifugation, and then blocking was carried out by adding a PBS/Tween 20 buffer containing 5.0% BSA. […] The substrate was incubated at room temperature for 15 minutes, and then a signal value thereof was measured using an Envision counter (PerkinElmer, Inc.).
The test for each antibody was carried out in duplicate, and the EC50 value was calculated using a 4-parameter logistic curve model.

[8] = design: species or system mice (BALB/c or BALB/c nu/nu); settings: mouse, in vivo; remark: listed apart in the source
Procedure: as §2
Based on the amount of Gd contained in the kidneys of the control conjugate, the proportion of decrease in the amount of Gd contained in the kidneys of each of the conjugates having a peptide linker was determined.

[9] = target: human cancer-specific MUC1 peptide (PTL 1) (human); experiment: ELISA, immobilised MUC1 peptide (Example 6-1)
[10] = target: human cancer-specific MUC1 peptide (PTL 1) (human); experiment: ELISA, immobilised MUC1 peptide (Example 6-2)

human cancer-specific MUC1 peptide (PTL 1) (human), sequence (main, as listed by the source): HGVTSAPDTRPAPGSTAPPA

B1: [Gd/DOTA-[2,5-(1,2,3,4-tetrahydroisoquinoline)]-C(═O)-Met-Gly-Lys*-Z2(#N)]p-Fab^2 (conjugate)
heavy: EVQLVESGGGLVQPGGSLRLSCAASGFNIRDTYMHWVRQAPGKGLEWVARIDPANGNSRYVPKFQGRFTISADTSRNTAYLQMNSLRAEDTAVYYCAPFGYYVSDYAMAYWGQGTLVTVSSASTKGPSVFPLAPSSKSTSGGTAALGCLVKDYFPEPVTVSWNSGALTSGVHTFPAVLQSSGLYSLSSVVTVPSSSLGTQTYICNVNHKPSNTKVDKKVEPKSCD
light: DIQLTQSPSSLSASVGDRVTITCRAGESVDIFGVGFLHWYQQKPGKAPKLLIYRASNLESGIPSRFSGSGSRTDFTLTISSLQPEDFATYYCQQTNEDPYTFGQGTKVEIKRTVAAPSVFIFPPSDEQLKSGTASVVCLLNNFYPREAKVQWKVDNALQSGNSQESVTEQDSKDSTYSLSSTLTLSKADYEKHKVYACEVTHQGLSSPVTKSFNRGEC
[1]
  Renal residual amount (cancer-bearing mice), % of dose/tissue: 7.30 % of dose/tissue
  Renal residual amount (cancer-bearing mice), Proportion of decrease (%): 71.74%
[2]
  Proportion of decrease (%) in the amount of Gd contained in the kidneys: 82.9%
[3]
  Amount of tumor accumulation (tumor-bearing mice), % of dose/g: 4.53 % of dose/g

B2: [Gd/4arm-DOTA-CH2-(1,4-Ph)-NH—C(═S)—NH—CH2-(1,3-Ph)-C(═O)-Met-Gly-Lys*-Z2(#S)]p-Fab^2 (conjugate)
heavy: B1 heavy
light: B1 light
[2]
  Proportion of decrease (%) in the amount of Gd contained in the kidneys: 72.9%

B3: [Gd/DOTA-NH—CH2-(1,3-Ph)-C(═O)-Asp-Gly-Lys*-Z2(#N)]p-Fab^2 (conjugate)
heavy: B1 heavy
light: B1 light
[4]
  Renal residual amount (normal mice), % of dose/tissue: 21.67 % of dose/tissue
  Renal residual amount (normal mice), Proportion of decrease (%): 26.12%
[5]
  Proportion of decrease (%) in the amount of Gd contained in the kidneys: 52.2%

B4: [Gd/DOTA]p-Fab^2 (conjugate)
heavy: B1 heavy
light: B1 light
[4]
  Renal residual amount (% of dose/tissue), Mean: 29.33 % of dose/tissue
[1]
  Renal residual amount (% of dose/tissue), Mean: 25.83 % of dose/tissue
[5]
  Geometric mean (% of dose/tissue): 31.0 % of dose/tissue
[6]
  Renal residual amount (normal mice), % of dose/tissue: 31.30 % of dose/tissue

B5: [Gd/4arm-DOTA-CH2-(1,4-Ph)-NH—C(═S)-Gly-Phe-Lys*-Z2(#N)]p-Fab^2 (conjugate)
heavy: B1 heavy
light: B1 light
[2]
  Proportion of decrease (%) in the amount of Gd contained in the kidneys: 68.0%

B6: [Gd/DOTA-NH—CH2-(1,4-Ph)-NH—C(═O)-Met-Ile-NH—(CH2)2—Z1(#S)]p-Fab^5 (conjugate)
heavy: QVQLVQSGAEVKKPGASVKVSCKASGYTFTNYGLSWVRQAPGQGLEWMGENHPGSGIIYHNEKFRGRVTLTADRSTSTAYMELSSLRSEDTAVYYCARSSGTRGFDYWGQGTLVTVSSASTKGPSVFPLAPSSKSTSGGTAALGCLVKDYFPEPVTVSWNSGALTSGVHTFPAVLQSSGLYSLSSVVTVPSSSLGTQTYICNVNHKPSNTKVDKKVEPKSCD
light: DVVMTQTPLSLSVTPGQPASISCRSSQSIVHSNGNTYLEWYLQKPGQSPQLLIYRVSNRFSGVPDRFSGSGSGTDFTLKISRVEAEDVGVYYCFQGSHGPWTFGQGTKLEIKRTVAAPSVFIFPPSDEQLKSGTASVVCLLNNFYPREAKVQWKVDNALQSGNSQESVTEQDSKDSTYSLSSTLTLSKADYEKHKVYACEVTHQGLSSPVTKSFNRGEC
[7]
  EC50: 0.09 nM

B7: [Gd/DOTA-NH—CH2-(1,4-Ph)-NH—C(═O)-Met-Ile-NH—(CH2)2-(A-4 and/or A-5)]p-Fab^5 (conjugate)
heavy: B6 heavy
light: B6 light
[8]
  Renal residual amount (normal mice), % of dose/tissue: 2.30 % of dose/tissue

B8: [Gd/DOTA-NH—CH2-(1,4-Ph)-NH—C(═O)-Met-Ile-NH—(CH2)2-(A-3)]p-Fab^5 (conjugate)
heavy: B6 heavy
light: B6 light
[8]
  Renal residual amount (normal mice), % of dose/tissue: 2.80 % of dose/tissue

B9: ([Gd/DOTA-NH-CH2-(1,4-Ph)-NH-C(═O)-Met-Ile-NH-(CH2)2-(A-4 and/or A-5)]p-Fab^5) (Fab, V domains shown)
VH: QVQLVQSGAEVKKPGASVKVSCKASGYTFTNYGLSWVRQAPGQGLEWMGENHPGSGIIYHNEKFRGRVTLTADRSTSTAYMELSSLRSEDTAVYYCARSSGTRGFDYWGQGTLVTVSS
VL: DVVMTQTPLSLSVTPGQPASISCRSSQSIVHSNGNTYLEWYLQKPGQSPQLLIYRVSNRFSGVPDRFSGSGSGTDFTLKISRVEAEDVGVYYCFQGSHGPWTFGQGTKLEIKR
modifications: labeling portion on p amino groups of the Fab; chain and sites not stated
[9]
  EC50: 0.08 nM

B10: ([Gd/DOTA-NH-CH2-(1,4-Ph)-NH-C(═O)-Met-Ile-NH-(CH2)2-Z1(#S)]p-Fab^5) (Fab, V domains shown)
VH: B9 VH
VL: B9 VL
modifications: labeling portion on p amino groups of the Fab; chain and sites not stated
[10]
  EC50: 0.09 nM

B11: ([Gd/DOTA-[2,5-(1,2,3,4-tetrahydroisoquinoline)]-C(═O)-Met-Gly-Lys*-C(═S)-NH-(1,4-Ph)-NH-C(═S)]p-Fab^5) (Fab, V domains shown)
VH: B9 VH
VL: B9 VL
modifications: labeling portion on p amino groups of the Fab; chain and sites not stated
[10]
  EC50: 0.19 nM

B12: ([Gd/DOTA-NH-CH2-(1,4-Ph)-NH-C(═O)-Met-Ile-NH-(CH2)2-(A-3)]p-Fab^5) (Fab, V domains shown)
VH: B9 VH
VL: B9 VL
modifications: labeling portion on p amino groups of the Fab; chain and sites not stated
[9]
  EC50: 0.15 nM

B13: ([Gd/DOTA-NH-CH2-(1,4-Ph)-NH-C(═O)-Met-Ile-NH-(CH2)2-Z1(#N)]p-Fab^5) (Fab, V domains shown)
VH: B9 VH
VL: B9 VL
modifications: labeling portion on p amino groups of the Fab; chain and sites not stated
[10]
  EC50: 0.08 nM

B14: Ex-No 108, conjugate with Fab^5 that does not contain a peptide linker (structure only as drawing CHEM-US-00162) (Fab, V domains shown)
VH: B9 VH
VL: B9 VL
modifications: labeling portion on p amino groups of the Fab; chain and sites not stated
[9]
  EC50: 0.07 nM
[10]
  EC50: 0.07 nM
